Assay results: a protein production outcome set (Wang et al. 2014)

Assay: label from the status in PepcDB records

Row | Sequence | protein production
1 | MSRSPRYTNFILIAVMLGALLPAAGCLEEHEVASAGLSSATMSVNLTYYTEQLPPYNYMENSMLQGLSVDLLEEITEKMGKKVTREEVHLVPWTEGYQAALNGNNTVLFSMARSPEREQFFKWAGPIYSDRYVLFAKRDRGITIKNPEDLKGYRIGVIADDIATRQLLDIGVNQSQIAPESNVSAIIAGLENGDIDLWACPEDAGRYFTEELTGSYYSYTVVYQLETQDLYYAFSKDVPDSVVQSFQQALDAVKREKDVEGISTYDRILGKYIPSIGLARLNYLTEEWAPFNYQEDGNVTGISVEILEAVFKNIGVNRSRADVRIVPLAEGFQIAQNNTSTVLFSIVRTPEREPFYKWAGPFTRANFVLYAPVSSNITISSPKDLNQYRIGAIRASIENDLLASQGVNESQIINGQTPEDLFRMLEEGQIDLWATGDLAGRHQMLRTAEDPNAYEIVYTLSENDFYYIFSKDVPDTLVSAFQQALDTVRDQRDEQGVSDYERIIYRNLGVGCAPQTFTDDTVMELVNTTVKAIEKNASDTFRRINAGEAPYRDSKDPGLYAFVYDTNLTIVAHADNIQLVGTNFRGKTDVTGKPFRDEILEGALKNGTGSVDYVYMHPVQTNLYYKTAYYRLTRGSDGNSYIVCSGNYKLCQNQSEAMPANNSTASPEELAAFVEKAFEYAHENGQEVALREFNNQAGQFVDGKFYIFAYDTNGTTLALPFQPEIIGTKRWNVTDTNGTLFIQDLVDTAQSGGGFVRYFYADPADNFTVKQKLSYVMMVNQSWIIGSGIYDPQKDSAIVRAGTDPQVRENLKSFVGEAIEYANTNGKDTAIEEFNDRNGAFVRGNLYIYAFDYNGTTLALPYQAQLIGTNLSELQDPYGVNYTKVEIFMAQQGGGFLFYHYYNPARNMTLEPKMSYVQKVDDTWWLGAGTYTEDLNRITKRD | failed
2 | MGETTVGHVAGEVVRALYGAGYMESTIGQYRKSIRALERYAGGPDAVYTRGLGAGFAASTFSERTGGFSRQRWFDYGRLARLCDSYLRSGSVDLGKWRRSRLAEPVVPGLAVVMERWEAYLAGSGLASATVGHYRRMAGLFLTWLESHGVVSLDGSDGSHVLGFLAGLRSRWSESSMRHAASDLRPLFRWLGRDDLADAIGLAGIRRTHAIAGTLPDDEHRRLLEACASRSVPSRDAAITLLSLTCGLRACDVIGLRIADVDWDSMSIGLVQRKTGNPLTVPMTGPLAARLASWLLDERPATDDDRVFVRYKAPHVALRGHSSVYEAISRVMRHAGLGRRGGSRLLRRNAATRMLEAATPLPTISAVLGHADPDSTRVYMATHRGGMLACVLPVPEGGSS | failed
3 | MINYNKTQHLIESMVFERVVPGVNYAFIKNKQIFTSTTGFASIYPEVTQLSPFAEYDLASLTKVLATENVLLKLYDQGELNFTEPLKEFIPTFKDPKVRLYHLLTHTSGIRGWIPHRDELSHDELLNALINLPVTDEFEHKMRYADTNFILLGLVIKSIFGASVQEVATKEIFDQMPLINTTFTPNKSECVPTAIINDQVLQGIPHDPKARQLGLDCGSAGLFSNMRDLITFSQGYLGLKRNVLPYSQDTVSELFDDKTPKGVKPRSWGWDIRFDPKYHYPIILHTGFTGTLIILDRLKKSGLILLTNRVHPTGHNTIFLAMREKIIRSFLNENSKI | failed
4 | MVFLVPFDGSPLADAALNRAVTYAKALDEDVVAVAFIPTGADYAERRRRVDPTEDFAAETAADDLRRKIEEATDDSELRYDDVSAHSTSELSTTIRQTARDVDANVVFLGSDDTEDIVVPIGEVTDGEDYDVHIVRRT | failed
5 | MVVSIGVFDGVHIGHQKVLRTMKEIAFFRKDDSLIYTISYPPEYFLPDFPGLLMTVESRVEMLSRYARTVVLDFFRIKDLTPEGFVERYLSGVSAVVVGRDFRFGKNASGNASFLRKKGVEVYEIEDVVVQGKRVSSSLIRNLVQEGRVEEIPAYLGRYFEIEGIVHKDREFGRKLGFPTANIDRGNEKLVDLKRGVYLVRVHLPDGKKKFGVMNVGFRPTVGDARNVKYEVYILDFEGDLYGQRLKLEVLKFMRDEKKFDSIEELKAAIDQDVKSARNMIDDIINSKFEKEG | not failed
6 | MKEQILEKLKTVKYPGFEKDIVSFNFVKDIKIQDDGVFIDIEIVSANPEVANEIRKNTIEALSSLALKNIELNIITPKIPEEKSNSRSGKNIAPQVKNFIMVSSGKGGVGKSTTTVNLAISMAKMGKRVGILDADIYGPNIPRMLGETKTQPEVVGQRLKPILTHGVYMMSMGVLIEEGQGLMWRGAMIMKAIEQLLADVIWPELDVLFLDMPPGTGDAQITSAQSIPIAAGVCVSTPQTVSLDDSKRALDMFNKLHIPIAGVIENMSGFLCPDNGKEYDIFGKGTAEDMAKAYKSEVLAQIPIEMIVREGGDEGKPVSFYHPESVSSKRYLMAAEKIWSFIEKINNEGGADNSAIQPVMNGKSACSHLEHHHHHH | not failed
7 | MIDWPLAELLPHAGDMILIDQVLAFDEEQIRTRLEVRPGGLFNRPDGSLPAWVGVELMAQSVAAYAGCRARQQGLPVELGFLLGTRKFECNVEHFPLGSTLEIHALRSLEDDNGMGVFECHLSGPGITASARLNVFRPLEHHHHHH | failed
8 | MKKAVFSTLVIGLLSFQAHADYVAQPQSIAAQAARYSVMSIPELTQAAKSGQAGAQFYLGAHYQHGKNIPKDDKQAFTWFKAAADQGLSPAQLNVGRMYADGVGVAKNEAMARKYFEKAASNGDNRASYNLAMMEEQKKNYQGAYQWYELSTRDGMLDNKVINMSQSKKTALAANLTQDQIRQAVDRADKWIQAQ | failed
9 | MISPERLRVYRFFASLTDEQLKDIALISEEKSFPTGSVIFKENSKADNLMLLLEGGVELFYSNGGAGSAANSTVCSVVPGAIFGVSSLIKPYHYTSSARATKPVRVVDINGARLREMSENNQALGQVLMNNVAAAVLARLH | not failed
10 | MSLDPAHTPDPAHPHDQEAAHAEDPARAIGSARLLDVDPLLDDPGTRIVVCCGSGGVGKTTTAAALGLRAAERGRKVVVLTIDPARRLAQSMGIDSLDNIPRRVKGIDDSASGELHAMMLDMKRTFDEIVEAHADRERAAAILSNPFYQSLSAGFAGTQEYMAMEKLGQLRARDEWDLIIVDTPPSRSALDFLDAPKRLGSFLDGKLIRLLTAPAKLGGRAGMKFLNVGMSMMTGTLGKLLGGQLLKDVQTFVAAMDTTFGGFRTRADATYKLLQAPGTAFLVVAAPERDALREAAYFVERLAAEDMPLAGLVLNRVHGSGAAQLSAERALAAAENLDLAADPGSTENLEESRIVDQEGGKAGLRNSPDTYGSSESPADLTPADQTPASSEGSPATDGAVEQLTAGLLILHAERMQLLSREQRTRDRFAALHPEVAVAEVAALPGDVHDLTGLRDIGDRLAANRPELPTSPGGALEHHHHHH | not failed
11 | MEPVLTTKDLKHNYVDGSAELLRDPELVDPPFQVSRCAGNNRDLQTGQRSSGCVVTEIVYLSDSPYSSLNLVLRYPTTPAYPSRHFFSGLGHQMRMLSKLRFTLRSPLGLRRQPAPPPPLLVRVSLSSEPGVFIKMDLKDPASLLDLAMQCLLKNEPIIIQSLEEIPRELLIPLFCAAFLGGHKKTLTAIVKVWPFFCLHVGKLRSHETHSALLKAMIDGLQVLPAPNSASRGSKLKILDLRQDANCRTTCFPIRTKSPFCFHSCSYTQTSSRKRKGKHSTVNLGSEVQLSRYPTELLVDLSLDGTLRTSTFLSLLLSKVEQSSGALHLCCRDLQVDKLSDYNNTLKLLNLLCIDHLAVDQASLNDINTLLSQMVHLDSLSLSKITLTSLNAKIFKSFLTQLERMDNLQELNLSFFCLTNRLHKLLRVLPHDLDYLNLPFCELSYRDFRFLSQCPQAAHLKLLNLSNNPISWEDCEPLQTLMENVSGTLQHLEINHCLITDSTIFSLLPALSHCSHLRVLSFASNPITMSMLMRVLENLLPLMELKYVIYPIPVHCYERWYFQGTLDRQKLADVQVQLKAMLQAAQRGDMNWITFSE | failed
12 | EEKPCGFPHVENGRIAQYYYTFKSFYFPMSIDKKLSFFCLAGYTTESGRQEEQTTCTTEGWSPEPRCFKKCTKPDLSNGYISDVK | failed
13 | MNFNRFTQRAKKAIDLAFESAKSLGHNIVGSEHILLGLLREEEGIAAKVLSKVGFTEAYLEGKIVDMEGKGEEISEDIVLSPRSKQILELSGMFANKLKTNYIGTEHILLAIIQEGEGIANKILNYAGVNDRTLAQLTIDMMG | not failed
14 | MYRIIEAPNSGKYPFSHSLLIGKSCIIDTGSGEALAPLRVDCVLNTHWHEDHIAMNSIGRKVLAHPLDAEAIESYEEFRRRYGIGDSVRLFINFEFGQVDDVFEDGEQLEFEGVSVEVIHTPGHSAGHCCFVINNEAVFLGDIDLTSFGPWYGCLDCDVDDFVRSVKKMMREVERRDIEIAIPSHGRPVYGKEEIIGAMREYLKKIFERDKAIRELVRLGVDPVGKGIIYRKIPEPREIYLHFEKIMVEKHLTTSLDEFCLDLEHHHHHH | failed
15 | MESTKSNDIPILRNVSDSFSDHYGKYLQRCGIFVPKDGDSSGPDAYVVFHNGQTRYVVAFSFTFYHKTEFSKRDIEKEAEQFFQEVISVLNDGSPSSVQLCFQFVVVCTRYDRSVVFSSEEQNIVEDASYLVTEHSAGSTLNESRRSCLQLVVVSQRNLERFLGRENFDILRKIGKASREEFRKDFSVWCKTVFESMSDEYVSPLEAKPFNVTLRVARNIRPRTNEENRMQMEGFQTAMQVEEGNTRGEQRVAASSSLSSSFDWNTFLREYCGLSEEDVAYCLPKVEDIDMDELPAVTKEILRDLGIDKPALRLKIRSSIRSYLANER | failed
16 | MSLLPLPFTVHFDPTNQELLLSGKMRPESAAEITDALKLVQQSLEKYSGVVYVNVKRLTHINMTAFAALADILAASSRIRPERKIVIITSSVVAWSTSLFQTLAASQPSLSVEVYDSAFYPGQSFVEDETFIPILRTQTKMTWRHERELLPRHGLRSGLVIADICCGIGDFAALVQREFKPARLVALDHSVRSLEYARRVAADFDLQGIEYTYGDASQMLLRDNQFDFVTCRHSLQIFNRPEMLLRELYRICKPGGRVYITNEKNSHCLGEPHAESIKWTYEEVAKLFKHFDMDVEMGPKSRHLLADAGFDNIKVDSFMVTNLDGDPQDFADIIEAWENVYAGEMAVRRGDSSDFIRRFRQGFKDHVFAALHPKGYAGWPIWAASGRKPL | failed
17 | MNKVLINDTTLRDGEQAAGVVFTLEEKVAIAKFLDTIGVPELEVGIPAMGEEEMRAICAISNLGLKANLLAWNRAVISDIKASVACGMERVHIAIPVSGIQIAAKFHGQWRVSLQRLKDCISFAVDQGLWVAVGGEDSSRADENFLLDVALYAQEWGASRFRFCDTVGVLDPFTTYGKVKLLVSALTIPVEVHTHNDFGMATANALAGIKAGASSVNTTVIGLGERAGNAALEEVVMAIKRIYGVDMGIDTPRLLELSQLVAAASGANVPPWKAIVGENTFAHESGIHAHGVLQNPDTYEPFAPEEVGWERRLVVGKHSGRHSVSNLLEQHGIFLNPEETQSVLDAVRQQSIKKKRSLTTEELLNLVKEQRYSHAAR | failed
18 | PTLYEKIQQANEEAVTRIIQSKPILVGFDKAINVMPDMTETTILHAGPPITYENMCGPMKGAVQGALVFEGLAKDLADADRVARSGAITFSPCHEHDAVGSMAGVTSPNMYVHIIKNETYGNTAFTNLSEQLAKVLRFGANDQSVVDRLIWMRDVLGPLLHDAMTFCPEGIDLRLMLSQALHMGDECHNRNVAGSTLLVQALTPYMVQTDFSREQLKEVFEFLGSSDYFSGPTWMGAAKCALDAGHNVENSTIVTTMCRNGVEFGIRVSGIGGNHWFTGPAQRVIGPMFAGYTQEDAGLDMGDSAITETYGVGGFAMAAAPAIVPLVGGTVAEALNYSKEMLEITTKENPNVTIPVLDFMGIPTGIDVLKVLETGMLPVINTAIAHKEPGIGMIGAGLTNPPANVFNEALKALVATIN | not failed
19 | MVPMASNNLAYIKLRLLSLLVGLGIAALASLIIYAVAYYLFGIYSIGIIFGVFVLVLMMDLLQWFIGPYIVDMVYRAKKADPNRYGNIIAIVEEVAKLNGIRPPTLYISEVSFPNAFAYESPIAGRRIAITRPLLGILNEDELRAVIGHEIGHLKHHDSAVIMAIGLIPTLIFYFAYTTLFAGDRRNGGSAIILALVLMVVSFLFNIMVLSVNRLRESYADANAALTIPNGARNLQTALAKIVRYGSSAKNTAASMLLFANYDMDREDVETLIDKWRTMRVGILSDLFSDHPHPAKRIRLLDKLQDSS | failed
